{"source": "paper PMC4287573", "molecular_target": "HA-tagged HNRNPK (heterogeneous nuclear ribonucleoprotein K), wild type (human) (UniProt P61978)", "experiment": "co-IP; anti-HA agarose beads on lysates of Huh7.5 cells stably expressing HA-tagged HNRNPK or its deletion mutants, 48 h after electroporation with a subgenomic JFH1 replicon or genomic HCV RNA; lysis buffer 20 mM Tris-HCl pH 7.5, 0.5% Nonidet P-40, 1 mM sodium deoxycholate, 100 mM NaCl; 3 h at 4°C; elution with HA peptide; immunoblot; cells with non-tagged HNRNPK as control"}
{"substance": "HCV core protein (natural protein)", "values": [{"measurement": "percent of the intracellular HCV protein coprecipitated", "value": 1, "unit": "%"}]}
